{"source": "patent US20260109773A1", "about": "(HARPOON THERAPEUTICS, published 2026)", "binders": {"B1": {"name": "253BH10 trispecific protein (other, not shown: large carriers)", "chain": "QVQLVESGGGLVQPGESLRLSCAASTNIFSISPMGWYRQAPGKQRELVAAIHGFSTLYADSVKGRFTISRDNAKNTIYLQMNSLKPEDTAVYYCNKVPWGDYHPRNVYWGQGTQVTVSS", "notes": "also called molecule with the parental CDRs"}, "B2": {"name": "cynomolgus CD3ε-Fc (Fc fusion, UniProt Q95LI5 22-117, looked up)", "chain": "QDGNEEMGSITQTPYQVSISGTTVILTCSQHLGSEAQWQHNGKNKEDSGDRLFLPEFSEMEQSGYYVCYPRGSNPEDASHHLYLKARVCENCMEMD", "notes": "loaded on streptavidin tips; not shown: Fc part"}, "B3": {"name": "human BCMA on BCMA-expressing cell lines (receptor)", "chain": "MLQMAGQCSQNEYFDSLLHACIPCQLRCSSNTPPLTCQRYCNASVTNSVKGTNAILWTCLGLSLIISLAVFVLMFLLRKINSEPLKDEFKNTGSGLLGMANIDLEKSRTGDEIILPRGLEYTVEECTCEDCIKSKPKVDSDHCFPLPAMEEGATILVTTKTNDYCKSLPAALSATEIEKSISAR", "notes": "BCMA as expressed by human tumour cell lines; also called BCMA expressing cells (EJM, Jeko1, MOLP-8, OPM-2, NCI-H929, RPMI-8226)"}, "B4": {"name": "cynomolgus serum albumin (other, UniProt A2V9Z4 25-608, looked up)", "chain": "DTHKSEVAHRFKDLGEEHFKGLVLVAFSQYLQQCPFEEHVKLVNEVTEFAKTCVADESAENCDKSLHTLFGDKLCTVATLRETYGEMADCCAKQEPERNECFLQHKDDNPNLPPLVRPEVDVMCTAFHDNEATFLKKYLYEVARRHPYFYAPELLFFAARYKAAFAECCQAADKAACLLPKLDELRDEGKASSAKQRLKCASLQKFGDRAFKAWAVARLSQKFPKAEFAEVSKLVTDLTKVHTECCHGDLLECADDRADLAKYMCENQDSISSKLKECCDKPLLEKSHCLAEVENDEMPADLPSLAADYVESKDVCKNYAEAKDVFLGMFLYEYARRHPDYSVMLLLRLAKAYEATLEKCCAAADPHECYAKVFDEFQPLVEEPQNLVKQNCELFEQLGEYKFQNALLVRYTKKVPQVSTPTLVEVSRNLGKVGAKCCKLPEAKRMPCAEDYLSVVLNRLCVLHEKTPVSEKVTKCCTESLVNRRPCFSALELDEAYVPKAFNAETFTFHADMCTLSEKEKQVKKQTALVELVKHKPKATKEQLKGVMDNFAAFVEKCCKADDKEACFAEEGPKFVAASQAALA", "notes": "loaded on streptavidin tips"}, "B5": {"name": "human CD3ε-Fc (Fc fusion, UniProt P07766 23-126, looked up)", "chain": "DGNEEMGGITQTPYKVSISGTTVILTCPQYPGSEILWQHNDKNIGGDEDDKNIGSDEDHLSLKEFSELEQSGYYVCYPRGSKPEDANFYLYLRARVCENCMEMD", "notes": "as for B2"}}, "key": {"human BCMA protein": {"target": "T1, human BCMA protein (human, UniProt Q02223 1-54, limits assumed)", "T1 sequence": "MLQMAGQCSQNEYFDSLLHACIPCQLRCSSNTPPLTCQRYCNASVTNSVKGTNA", "assay": "affinity to human BCMA protein; method not stated"}, "[1]": {"target": "B3", "assay": "cell-based or functional assay"}, "02B05 TriTAC [2]": {"target": "T2, 02B05 TriTAC", "T2 construct": "TriTAC trispecific; His6 in entry; also called exemplary BCMA targeting trispecific protein (02B05)", "T2 sequence (chain, as listed by the source)": "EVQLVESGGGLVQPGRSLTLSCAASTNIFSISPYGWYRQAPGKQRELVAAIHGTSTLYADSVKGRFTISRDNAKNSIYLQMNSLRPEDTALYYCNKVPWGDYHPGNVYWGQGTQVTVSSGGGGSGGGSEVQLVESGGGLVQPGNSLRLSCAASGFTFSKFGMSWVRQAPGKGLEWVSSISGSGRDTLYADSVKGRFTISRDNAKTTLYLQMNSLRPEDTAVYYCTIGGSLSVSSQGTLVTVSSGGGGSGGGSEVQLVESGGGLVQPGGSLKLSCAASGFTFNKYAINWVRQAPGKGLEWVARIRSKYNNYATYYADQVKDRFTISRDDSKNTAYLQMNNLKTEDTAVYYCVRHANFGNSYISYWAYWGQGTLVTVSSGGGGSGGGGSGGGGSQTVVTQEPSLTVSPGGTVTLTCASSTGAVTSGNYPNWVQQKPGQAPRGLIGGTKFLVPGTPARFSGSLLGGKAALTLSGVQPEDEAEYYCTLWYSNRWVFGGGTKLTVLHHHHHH", "assay": "Octet; 2.5 nM cynomolgus CD3ε-Fc on streptavidin tips; 15 mg/ml HSA; n=2", "method": "(§1) The affinities were measured using an Octet instrument. For these measurements, streptavidin tips were first loaded with 2.5 nM human BCMA-Fc, 2.5 nM cynomolgous BCMA-Fc, 2.5 nM human CD3ε-Fc, 2.5 nM cynomolgus CD3ε-Fc, 50 nM human serum albumin (HSA), 50 nM cynomolgus serum albumin, or 50 nM mouse serum albumin. […] Average calculated KD values from these studies are provided in Table 4 (n indicates the number of independent measurements, n/d indicates no binding detected under the conditions tested)."}, "02B05 TriTAC [3]": {"target": "T2, 02B05 TriTAC", "assay": "flow cytometry on NCI-H929 cells (BCMA RNA FPKM 1931); bound protein detected with an Alexa Fluor 647 antibody against the anti-albumin domain; negative control: GFP trispecific protein"}, "02B05 TriTAC [4]": {"target": "T2, 02B05 TriTAC", "assay": "Octet; 50 nM cynomolgus serum albumin on streptavidin tips; n=1", "method": "as §1"}, "02B05 TriTAC [5]": {"target": "T2, 02B05 TriTAC", "assay": "Octet; 2.5 nM human CD3ε-Fc on streptavidin tips; 15 mg/ml HSA; n=2", "method": "as §1"}}}
{"binder": "B1", "values": [{"measurement": "Kd", "setting": "human BCMA protein", "result": 27.7, "unit": "nM"}, {"measurement": "TDCC EC50, EJM cells", "setting": "[1]", "result": 0.0529, "unit": "nM"}]}
{"binder": "B2", "values": [{"measurement": "Kd", "setting": "02B05 TriTAC [2]", "result": 7.8, "unit": "nM"}]}
{"binder": "B3", "values": [{"measurement": "binding result", "setting": "02B05 TriTAC [3]", "result": "binds"}]}
{"binder": "B4", "values": [{"measurement": "Kd", "setting": "02B05 TriTAC [4]", "result": 7.5, "unit": "nM"}]}
{"binder": "B5", "values": [{"measurement": "Kd", "setting": "02B05 TriTAC [5]", "result": 8, "unit": "nM"}]}
